Laboratory results as given in patent publication US20080027145A1, “Therapeutic Molecules and Methods for Generating and/or Selecting Same” (priority 2004, published 2008).

Tests used:
[1] = target: mouse A1 ΔC20 (mouse) (UniProt Q07440); test: Biacore solution competition against immobilised mouse wtBimBH3
[2] = target: mouse Mcl-1 ΔN151 ΔC23 (mouse) (UniProt P97287); test: as above
[3] = target: mouse Mcl-1 ΔN151 ΔC23 (mouse) (UniProt P97287); test: from the solution competition affinities
[4] = target: m ^wtBimBH3 (83-108) (mouse); test: SPR (Biacore 3000), protein over immobilised m wtBimBH3
Chain of m ^wtBimBH3 (83-108) (mouse) (peptide, as listed by the source limits assumed): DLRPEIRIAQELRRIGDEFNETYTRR

Chain of mouse A1 ΔC20 (mouse) (Q07440 other isoform, or with tags, fused parts or gaps mutant): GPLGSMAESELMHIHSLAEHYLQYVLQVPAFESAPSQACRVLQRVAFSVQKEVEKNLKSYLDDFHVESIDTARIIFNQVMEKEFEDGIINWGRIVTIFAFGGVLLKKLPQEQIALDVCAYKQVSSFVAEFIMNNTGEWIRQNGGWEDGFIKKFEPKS
Chain of mouse Mcl-1 ΔN151 ΔC23 (mouse) (P97287 other isoform, or with tags, fused parts or gaps mutant): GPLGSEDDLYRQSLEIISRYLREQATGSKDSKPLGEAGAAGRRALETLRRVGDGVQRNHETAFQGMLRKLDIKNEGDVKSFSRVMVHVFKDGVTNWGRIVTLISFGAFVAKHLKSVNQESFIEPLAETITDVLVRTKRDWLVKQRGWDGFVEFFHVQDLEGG

Substance | IC50 [1] [nM] | IC50 [2] [nM] | fold weaker binding than to Bcl-xL [3] [fold] | Kd [4] [nM] | koff [4] [s⁻¹] | kon [4] [M⁻¹ s⁻¹]
Bik (51-75) BH3 peptide, human | 58 | 1700 | 40 |  |  | 
Hrk (26-51) BH3 peptide, human | 46 | 370 |  |  |  | 
Puma (130-155) BH3 peptide, human | 5.7 | 5 |  |  |  | 
mouse A1 ΔC20 (from UniProt Q07440 1-152) |  |  |  | 0.5 | 0.00014 | 290000
mouse Mcl-1 ΔN151 ΔC23 (from UniProt P97287 152-308) |  |  |  | 0.2 | 0.00026 | 1.3e+06
